Our source for the Kd values is paper PMC6179186, “Novel RNA aptamers targeting gastrointestinal cancer biomarkers CEA, CA50 and CA72-4 with superior affinity and specificity”.

Series [1] deals with CA50 (cancer antigen 50) (human). Nature of the series: fluorescence titration. Particulars: 5 mM MgCl2; yeast tRNA competitor 1 ug/ul; RSB-100: 10 mM Tris-HCl pH 7.5, 5 mM MgCl2, 100 mM NaCl, 0.01% NP-40, yeast tRNA 1 ug/ul, room temperature, 10 min; 1 pmol RNA, antigen 0-200 nM.
Series [2] relates to CA72-4 (cancer antigen 72-4) (human). Nature of the series: fluorescence titration. The settings on record: 5 mM MgCl2; yeast tRNA competitor 1 ug/ul; RSB-100: 10 mM Tris-HCl pH 7.5, 5 mM MgCl2, 100 mM NaCl, 0.01% NP-40, yeast tRNA 1 ug/ul, room temperature, 10 min; 1 pmol RNA, antigen 0-200 nM.
The target of series [3] is CEA (carcinoembryonic antigen) (human, UniProt P06731 35-685). Nature of the series: fluorescence titration; 5 mM MgCl2; yeast tRNA competitor 1 ug/ul; RSB-100: 10 mM Tris-HCl pH 7.5, 5 mM MgCl2, 100 mM NaCl, 0.01% NP-40, yeast tRNA 1 ug/ul, room temperature, 10 min; 1 pmol RNA, antigen 0-200 nM. The settings on record: protein: commercial; label: Alexa Fluor 488 (ULS); mfold-predicted secondary structure.
Sequence of CEA (carcinoembryonic antigen) (P06731 35-685): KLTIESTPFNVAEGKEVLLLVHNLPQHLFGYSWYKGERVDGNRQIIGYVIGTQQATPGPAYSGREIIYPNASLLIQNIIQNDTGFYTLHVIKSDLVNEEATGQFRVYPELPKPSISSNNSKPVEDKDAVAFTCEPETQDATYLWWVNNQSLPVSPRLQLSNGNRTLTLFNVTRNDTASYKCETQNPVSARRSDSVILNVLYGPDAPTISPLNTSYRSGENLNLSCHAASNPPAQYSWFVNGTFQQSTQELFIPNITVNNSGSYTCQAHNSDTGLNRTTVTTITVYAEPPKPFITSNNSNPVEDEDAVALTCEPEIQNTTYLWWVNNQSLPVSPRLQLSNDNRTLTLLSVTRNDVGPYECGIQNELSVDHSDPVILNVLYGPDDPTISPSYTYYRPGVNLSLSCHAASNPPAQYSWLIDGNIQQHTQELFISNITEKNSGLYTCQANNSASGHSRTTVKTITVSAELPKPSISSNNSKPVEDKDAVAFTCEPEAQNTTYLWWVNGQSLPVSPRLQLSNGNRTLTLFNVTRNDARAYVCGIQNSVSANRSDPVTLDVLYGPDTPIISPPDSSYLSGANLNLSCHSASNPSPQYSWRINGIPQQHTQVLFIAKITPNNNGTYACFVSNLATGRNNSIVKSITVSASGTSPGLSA

As usually defined, the Kd is the free concentration of one partner at which half of the binding sites on the other are occupied at equilibrium, for simple one-to-one binding. Molecule “GGGUCGUGUCGGAUCCAGCUCGAAAGUGGGCUGGCGAUGUGUCCCGAAGCUUCUAAGGUAACGAU [CA50 A02]” yielded a Kd in series [1] of 30.7 nM. “GGGUCGUGUCGGAUCCCCCAAAAAGGAUUGGGGCGUCUGCAUGACCAAGCUUCUAAGGUAACGAU [CA72-4 A02]” showed a Kd in series [2] of 71.2 nM. In turn, “GGGUCGUGUCGGAUCCGUGAGUUUUUCGCGGCGAAGACAAGGCUCGAAGCUUCUAAGGUAACGAU [CA50 A01]” returned a Kd in series [1] of 38 nM. As to “GGGUCGUGUCGGAUCCUGCGAAGGGGGGCAGAGGUUUGACGCGAGAAAGCUUCUAAGGUAACGAU [CA72-4 A01]”, the Kd in series [2] is 52.7 nM.

B1: CEA A02 (structured_RNA)
RNA: GGGUCGUGUCGGAUCCAACGGCAUGACCUAACCUGGAGGCGCAUCAAAGCUUCUAAGGUAACGAU
Consider B1, for which, in series [3], the Kd is 156 nM.
